Measurements published in US20240287172A1 (SCIRHOM, published 2024).
Substitutions are numbered along the chain they refer to.

T1: hiR2-FL-M534S-T7 (human, UniProt Q6PJF5 1-856)
T1 sequence: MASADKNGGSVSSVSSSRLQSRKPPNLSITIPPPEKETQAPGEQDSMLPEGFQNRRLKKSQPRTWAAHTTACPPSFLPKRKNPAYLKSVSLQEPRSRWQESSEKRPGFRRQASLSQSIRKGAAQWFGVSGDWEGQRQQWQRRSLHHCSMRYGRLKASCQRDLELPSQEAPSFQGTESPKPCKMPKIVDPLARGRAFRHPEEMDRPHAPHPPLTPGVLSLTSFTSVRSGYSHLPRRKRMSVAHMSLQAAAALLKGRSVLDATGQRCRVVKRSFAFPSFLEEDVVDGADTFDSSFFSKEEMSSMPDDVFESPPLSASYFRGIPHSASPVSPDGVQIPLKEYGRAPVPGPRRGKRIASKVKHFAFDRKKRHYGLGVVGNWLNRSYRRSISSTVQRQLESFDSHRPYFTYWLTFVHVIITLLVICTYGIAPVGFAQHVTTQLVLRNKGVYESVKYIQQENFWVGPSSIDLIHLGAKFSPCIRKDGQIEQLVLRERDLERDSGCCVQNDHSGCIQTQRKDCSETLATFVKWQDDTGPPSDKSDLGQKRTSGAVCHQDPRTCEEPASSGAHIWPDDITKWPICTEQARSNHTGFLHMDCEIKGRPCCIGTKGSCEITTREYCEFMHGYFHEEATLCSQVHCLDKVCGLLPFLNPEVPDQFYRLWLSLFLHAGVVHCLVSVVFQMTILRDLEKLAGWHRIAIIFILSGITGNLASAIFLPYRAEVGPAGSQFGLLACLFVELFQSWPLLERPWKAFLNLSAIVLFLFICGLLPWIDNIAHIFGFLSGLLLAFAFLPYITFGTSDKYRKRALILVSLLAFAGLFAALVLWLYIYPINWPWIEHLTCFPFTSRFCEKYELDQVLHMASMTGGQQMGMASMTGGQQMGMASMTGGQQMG

T2: hiR2-FL-L438S-T7 (human, UniProt Q6PJF5 1-856)
T2 sequence: T1 sequence with L438S, S534M

B1: antibody 5 (antibody, V domains shown)
VH: QVTLKESGPGILQPSQTLSLTCSFSGFSLSTFGMGVGWIRQPSGKGLEWLAHIWWDDEKYYNSALKSRLTISKATSKNQAFLKIANVDTADTATYYCARISNYGSNYWYFNVWGTGTTVTVSS
VL: QVVLTQSPALMSASPGEKVTMTCSAGSSVSCMYWYQQKPGSSPRVLIYDTSNLASGVPARFTGSGSGTSYSLTISRMEAEDAASYYCQQWNSYPLTFGAGTKLELK
notes: mouse IgG, kappa light chain; also called clone #5; purified antibody 5
B2: antibody 50 (antibody, V domains shown)
VH: QVQLQQSGAELVRPGASVKVSCKASGYAFSNYLIEWVKQRPGQGLEWIGVINPGSGFTKYNEKFKGKATLTADKSSSTAYMQLSSLTSEDSAVYFCARGLYRAMDYWGQGTSVTVSS
VL: DIQMTQSPASQSASLGESVTITCLASQTIGTWLAWYQQKPGKSPQLLIYAAASLADGVPSRFSGGGSGTKFSFKISSLQAEDFVNYYCQQIYSTPYTFGGGTKLEIK
notes: mouse IgG, kappa light chain; also called clone #50; purified antibody 50

What was measured:
hiR2-FL-M534S-T7 = target: T1, hiR2-FL-M534S-T7; experiment: FACS, MEF-DKO cells, 3 µg/ml
hiR2-FL-L438S-T7 = target: T2, hiR2-FL-L438S-T7; experiment: FACS, MEF-DKO cells, 3 µg/ml

Row | Binder | loss of binding vs wild type (hiR2-FL-M534S-T7) [%] | loss of binding vs wild type (hiR2-FL-L438S-T7) [%]
1 | B1 | ≥ 30 | 
2 | B2 |  | ≥ 30
